Results reported in article doi:10.1101/2020.10.01.322123 (bioRxiv, 2020).
Where two headings read alike, the source gives them in different places.

Tests used:
[1] = target: KD^pY1, mono-phosphorylated FGFR2 kinase domain (UniProt P21802); assay: MST
[2] = target: FGFR2 juxtamembrane region (JM) (UniProt P21802); assay: MST
[3] = target: CT^C1, untagged C-terminal tail of FGFR2 (the last 58 residues) (UniProt P21802); assay: MST
[4] = target: JM-KD^pY1 (UniProt P21802); assay: MST
[5] = target: CT^C1, untagged C-terminal tail of FGFR2 (the last 58 residues) (UniProt P21802); assay: SPR
[6] = target: JM-KD^pY1 (UniProt P21802); assay: SPR
[7] = target: JM-KD^Y657/658F (UniProt P21802-3 414-764, Y657/658F)
[8] = target: FGFR2 juxtamembrane region (JM) (UniProt P21802); assay: MST; remark: listed apart in the source

In the case of CT peptide 801-815, the Kd [1] is reported as 25.9 µM.

Work on JM peptide 414-430 yielded a Kd [1] of 36.8 µM.

For “KD^pY1, mono-phosphorylated FGFR2 kinase domain (from UniProt P21802-3 465-764) (domain or fragment)”, the Kd [2] was 2.51 µM, the Kd [1] was 0.112 µM and the Kd [3] was 3.75 µM.

JM peptide 407-420 gave a fold weaker binding than peptide 414-430 [1] of 3 fold.

In the case of “JM-KD^pY1 (from UniProt P21802-3 414-764) (domain or fragment)”, the Kd [3] is reported as 0.304 µM, the Kd [4] is reported as 3.46 µM and the Kd [5] is reported as 0.165 µM. For the same molecule, the Kd [6] was 3.07 µM.

B1: CT^C1, untagged C-terminal tail of FGFR2 (the last 58 residues) (domain or fragment)
chain: TTNEEYLDLSQPLEQYSPSYPDTRSSCSSGDDSVFSPDPMPYEPCLPQYPHINGSVKT
modifications: Atto488 dye in the MST assays where CT is the labelled partner
For B1, the Kd [7] was 5.65 ± 1.9 µM and the Kd [8] was 20.2 µM.
